The source of these data is paper PMC10987364.

Test [1] addresses L-rhamnose isomerase (L-RIM) (Chloroflexus sp. origin (hot spring metagenome)). Kind of test: native gel or EMSA; 10% Native PAGE of purified L-RIM, Coomassie stained; native mass against a marker. For orientation: A gel shift assay detects complexes by their altered migration in electrophoresis.
Test [2] has the same target. Briefly: SEC; Superdex 200 increase 10/300 GL, 50 mM Tris-Cl pH 7.0, 150 mM NaCl, 0.5 mL/min; calibrated with ovalbumin, conalbumin, aldolase and ferritin. (In general: SEC sorts molecules by how far they enter the pores of the column.)

With L-rhamnose isomerase (L-RIM) (enzyme), the stoichiometry N in test [1] and in test [2] was 4 throughout.

The stoichiometry N is the number of molecules, sites or subunits per partner or assembly.
